B1: Otu1-C120S-FLAG (enzyme, S. cerevisiae, UniProt P43558 1-301, looked up)
chain: MKLKVTGAGINQVVTLKQDATLNDLIEHINVDVKTMRFGYPPQRINLQGEDASLGQTQLDELGINSGEKITIESSDSNESFSLPPPQPKPKRVLKSTEMSIGGSGENVLSVHPVLDDNSSLFHAIAYGIFKQDSVRDLREMVSKEVLNNPVKFNDAILDKPNKDYAQWILKMESWGGAIEIGIISDALAVAIYVVDIDAVKIEKFNEDKFDNYILILFNGIHYDSLTMNEFKTVFNKNQPESDDVLTAALQLASNLKQTGYSFNTHKAQIKCNTCQMTFVGEREVARHAESTGHVDFGQNR
notes: Otu1, deubiquitinating enzyme of S. cerevisiae (Yod1 in mammals), with the active-site mutation C120S; pET28 with an N-terminal His6-tag and a TEV-protease cleavage site followed by a FLAG tag; source: E. coli BL21 CodonPlus (DE3) RIPL, purified (Ni-NTA, SEC)
B2: UBXN7-SBP (natural protein, human, UniProt O94888 1-489, looked up)
chain: MAAHGGSAASSALKGLIQQFTTITGASESVGKHMLEACNNNLEMAVTMFLDGGGIAEEPSTSSASVSTVRPHTEEEVRAPIPQKQEILVEPEPLFGAPKRRRPARSIFDGFRDFQTETIRQEQELRNGGAIDKKLTTLADLFRPPIDLMHKGSFETAKECGQMQNKWLMINIQNVQDFACQCLNRDVWSNEAVKNIIREHFIFWQVYHDSEEGQRYIQFYKLGDFPYVSILDPRTGQKLVEWHQLDVSSFLDQVTGFLGEHGQLDGLSSSPPKKCARSESLIDASEDSQLEAAIRASLQETHFDSTQTKQDSRSDEESESELFSGSEEFISVCGSDEEEEVENLAKSRKSPHKDLGHRKEENRRPLTEPPVRTDPGTATNHQGLPAVDSEILEMPPEKADGVVEGIDVNGPKAQLMLRYPDGKREQITLPEQAKLLALVKHVQSKGYPNERFELLTNFPRRKLSHLDYDITLQEAGLCPQETVFVQERN
notes: UBXN7, human, wild type; also called SBP-tagged version of UBXN7; homolog of Ubx5; source: E. coli BL21 CodonPlus (DE3) RIPL, purified (Ni-NTA, SEC); not shown: SBP, C-terminal, kept
B3: Yod1-C160S (enzyme, human, UniProt Q5VVQ6 1-348, looked up)
chain: MFGPAKGRHFGVHPAPGFPGGVSQQAAGTKAGPAGAWPVGSRTDTMWRLRCKAKDGTHVLQGLSSRTRVRELQGQIAAITGIAPGGQRILVGYPPECLDLSNGDTILEDLPIQSGDMLIIEEDQTRPRSSPAFTKRGASSYVRETLPVLTRTVVPADNSSLFTSVYYVVEGGVLNPACAPEMRRLIAQIVASDPDFYSEAILGKTNQEYCDWIKRDDTWGGAIEISILSKFYQCEICVVDTQTVRIDRFGEDAGYTKRVLLIYDGIHYDPLQRNFPDPDTPPLTIFSSNDDIVLVQALELADEARRRRQFTDVNRFTLRCMVCQKGLTGQAEAREHAKETGHTNFGEV
notes: Yod1, human, with the active-site mutation C160S; also called homolog of Otu1; source: E. coli BL21 CodonPlus (DE3) RIPL, purified (Ni-NTA, SEC)

Key:
Settings in all cases: both partners purified
Cdc48-UN ATPase complex = molecular target: T1, Cdc48-UN ATPase complex (S. cerevisiae, UniProt P25694 1-835; P53044 1-361; P33755 1-580); assay: pull-down; 1 µM Otu1-C120S-FLAG on anti-FLAG M2 agarose with 1 µM Cdc48, 1 µM UN and 1 µM Ub(n)-TAIL, with or without 1 µM Ubx5, SEC buffer, 5 mM ATPγS, 1 h, 4 °C; eluted with 3xFLAG peptide; fluorescence scan and Coomassie
T1 construct: Cdc48 ATPase of S. cerevisiae, wild type; Ufd1 of S. cerevisiae; Npl4 of S. cerevisiae; also called Cdc48 with the Ufd1-Npl4 (UN) complex; source: E. coli BL21 CodonPlus (DE3) RIPL, purified (Ni-NTA, SEC); Cdc48 and UN mixed; copies: 6 + +

Human p97 ATPase = molecular target: T2, Human p97 ATPase (human, UniProt P55072 1-806); assay: pull-down; 1 µM UBXN7-SBP on streptavidin agarose with 1 µM p97, 1 µM human UN, 1 µM Yod1-C160S and 1 µM Ub(n)-TAIL, SEC buffer, 5 mM ATPγS, 1 h, 4 °C; eluted with 2 mM biotin; Coomassie
T2 construct: p97 (VCP), human, wild type; also called VCP; homolog of Cdc48; source: E. coli BL21 CodonPlus (DE3) RIPL, purified (Ni-NTA, SEC)

human Npl4 = molecular target: T3, human Npl4 (human, UniProt Q8TAT6 1-608); assay: as above
T3 construct: Npl4, human; The plasmid paragraph tells of Npl4 in pET21 with a C-terminal His6 or FLAG-His6 tag and the purification paragraph of an untagged UN complex; neither says which holds for the human protein; also called hNpl4; source: purified; part of the 'human UN' complex

UBXN7-SBP = molecular target: B2; assay: as above

T2 sequence (P55072 whole entry): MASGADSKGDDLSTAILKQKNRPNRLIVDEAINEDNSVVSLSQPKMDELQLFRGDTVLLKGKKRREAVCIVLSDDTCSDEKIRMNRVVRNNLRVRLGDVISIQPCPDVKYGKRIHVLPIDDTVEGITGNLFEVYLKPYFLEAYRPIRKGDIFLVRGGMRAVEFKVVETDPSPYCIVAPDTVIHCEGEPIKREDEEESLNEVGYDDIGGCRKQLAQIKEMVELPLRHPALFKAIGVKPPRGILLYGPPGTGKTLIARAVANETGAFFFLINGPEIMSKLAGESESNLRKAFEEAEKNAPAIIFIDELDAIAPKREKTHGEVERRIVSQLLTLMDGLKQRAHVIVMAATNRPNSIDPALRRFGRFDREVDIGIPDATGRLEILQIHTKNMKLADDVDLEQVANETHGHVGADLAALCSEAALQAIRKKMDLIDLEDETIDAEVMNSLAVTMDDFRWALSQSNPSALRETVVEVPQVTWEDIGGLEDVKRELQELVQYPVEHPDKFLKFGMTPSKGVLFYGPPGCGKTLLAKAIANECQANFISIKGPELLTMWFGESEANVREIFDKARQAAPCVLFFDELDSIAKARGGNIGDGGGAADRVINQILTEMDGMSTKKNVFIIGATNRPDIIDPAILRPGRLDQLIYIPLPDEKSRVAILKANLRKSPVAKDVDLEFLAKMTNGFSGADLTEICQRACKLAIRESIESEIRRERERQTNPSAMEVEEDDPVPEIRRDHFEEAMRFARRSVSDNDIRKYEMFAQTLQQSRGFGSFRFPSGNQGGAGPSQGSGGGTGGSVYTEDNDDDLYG
T3 sequence (Q8TAT6 whole entry): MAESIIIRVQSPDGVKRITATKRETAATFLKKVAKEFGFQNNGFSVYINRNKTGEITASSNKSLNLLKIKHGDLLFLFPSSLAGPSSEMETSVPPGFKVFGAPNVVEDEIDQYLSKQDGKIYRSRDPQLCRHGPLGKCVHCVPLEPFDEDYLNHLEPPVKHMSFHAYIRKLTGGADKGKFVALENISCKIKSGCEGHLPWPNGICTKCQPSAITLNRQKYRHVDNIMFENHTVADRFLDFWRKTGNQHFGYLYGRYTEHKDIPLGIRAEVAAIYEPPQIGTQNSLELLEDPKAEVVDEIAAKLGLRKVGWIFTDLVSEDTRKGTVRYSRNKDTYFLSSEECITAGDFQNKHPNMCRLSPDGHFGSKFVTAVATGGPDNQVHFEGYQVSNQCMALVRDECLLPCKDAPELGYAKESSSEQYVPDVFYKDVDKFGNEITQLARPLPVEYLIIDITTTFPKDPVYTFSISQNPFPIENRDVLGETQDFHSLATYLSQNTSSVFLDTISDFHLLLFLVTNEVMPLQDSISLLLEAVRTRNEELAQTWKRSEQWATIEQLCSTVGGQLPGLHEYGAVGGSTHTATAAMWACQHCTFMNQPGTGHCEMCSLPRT
T1 sequence (P25694 whole entry, chain 1 of 3): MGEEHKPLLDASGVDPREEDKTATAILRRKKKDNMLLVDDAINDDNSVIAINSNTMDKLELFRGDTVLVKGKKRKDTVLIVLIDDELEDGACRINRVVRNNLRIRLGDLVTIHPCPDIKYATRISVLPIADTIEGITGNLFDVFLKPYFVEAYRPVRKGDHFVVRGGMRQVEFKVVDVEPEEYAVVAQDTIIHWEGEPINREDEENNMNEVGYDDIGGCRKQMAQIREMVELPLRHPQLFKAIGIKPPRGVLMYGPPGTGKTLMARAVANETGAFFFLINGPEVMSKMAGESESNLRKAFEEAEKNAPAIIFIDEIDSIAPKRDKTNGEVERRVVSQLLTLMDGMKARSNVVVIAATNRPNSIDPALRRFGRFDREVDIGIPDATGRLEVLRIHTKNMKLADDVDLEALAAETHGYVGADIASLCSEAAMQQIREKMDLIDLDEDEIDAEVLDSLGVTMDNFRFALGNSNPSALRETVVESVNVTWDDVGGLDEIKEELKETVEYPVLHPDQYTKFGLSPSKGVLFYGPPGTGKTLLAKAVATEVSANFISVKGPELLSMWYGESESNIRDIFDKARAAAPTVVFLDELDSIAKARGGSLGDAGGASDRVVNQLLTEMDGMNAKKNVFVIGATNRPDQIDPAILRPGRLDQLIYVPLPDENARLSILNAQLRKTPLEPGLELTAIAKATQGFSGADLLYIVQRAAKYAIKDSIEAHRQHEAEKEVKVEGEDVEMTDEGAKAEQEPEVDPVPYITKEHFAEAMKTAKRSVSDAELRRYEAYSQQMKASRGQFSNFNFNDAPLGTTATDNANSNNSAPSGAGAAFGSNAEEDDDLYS
T1 sequence (P53044 whole entry, chain 2 of 3): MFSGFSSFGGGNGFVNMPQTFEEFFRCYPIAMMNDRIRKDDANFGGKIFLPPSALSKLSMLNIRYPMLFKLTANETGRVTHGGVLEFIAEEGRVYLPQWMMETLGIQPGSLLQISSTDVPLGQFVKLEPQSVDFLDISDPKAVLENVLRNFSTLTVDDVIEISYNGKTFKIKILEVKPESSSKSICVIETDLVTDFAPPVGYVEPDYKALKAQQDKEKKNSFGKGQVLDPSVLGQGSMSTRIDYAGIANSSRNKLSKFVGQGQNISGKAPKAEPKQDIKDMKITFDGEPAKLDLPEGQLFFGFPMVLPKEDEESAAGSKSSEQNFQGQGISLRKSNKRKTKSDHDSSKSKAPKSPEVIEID
T1 sequence (P33755 whole entry, chain 3 of 3): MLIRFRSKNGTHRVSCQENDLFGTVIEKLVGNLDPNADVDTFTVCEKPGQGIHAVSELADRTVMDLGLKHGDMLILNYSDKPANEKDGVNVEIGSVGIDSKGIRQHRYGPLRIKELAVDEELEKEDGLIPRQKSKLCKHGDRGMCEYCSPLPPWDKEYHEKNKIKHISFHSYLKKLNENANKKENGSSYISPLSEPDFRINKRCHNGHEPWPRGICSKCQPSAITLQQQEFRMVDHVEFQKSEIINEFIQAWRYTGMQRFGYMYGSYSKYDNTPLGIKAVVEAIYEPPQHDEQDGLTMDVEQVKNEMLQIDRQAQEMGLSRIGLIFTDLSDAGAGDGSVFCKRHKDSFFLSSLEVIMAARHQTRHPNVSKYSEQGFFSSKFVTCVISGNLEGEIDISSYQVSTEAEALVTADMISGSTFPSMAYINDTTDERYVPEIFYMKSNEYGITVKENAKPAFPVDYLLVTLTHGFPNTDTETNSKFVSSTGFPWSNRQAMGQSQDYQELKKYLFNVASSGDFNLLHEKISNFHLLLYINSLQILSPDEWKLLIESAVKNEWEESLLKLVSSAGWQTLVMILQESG

B1: binds (Cdc48-UN ATPase complex).

B2: binds (Human p97 ATPase); binds (human Npl4).

B3: binds (UBXN7-SBP).

— article PMC13087191 (Scientific Reports, 2026)
